B1: human NAGS N-acetyltransferase domain (residues 377-534), as used in gel filtration (domain or fragment, UniProt Q8N159 377-534, looked up)
chain: MLRVRSLDKLDQGRLVDLVNASFGKKLRDDYLASLRPRLHSIYVSEGYNAAAILTMEPVLGGTPYLDKFVVSSSRQGQGSGQMLWECLRRDLQTLFWRSRVTNPINPWYFKHSDGSFSNKQWIFFWFGLADIRDSYELVNHAKGLPDSFHKPASDPGS
notes: N-acetyltransferase (NAT) domain of human N-acetylglutamate synthase, residues 377-534; also called hNAT; hNAT domain
B2: complete mouse N-acetylglutamate synthase (enzyme, UniProt Q8R4H7 19-527, looked up)
chain: LRSPGGPGGSRRLSGSARRRGAKSASPGRRLSTARAHAEDAEGAKGRVQSPAVEEPSWTPLPTPLESPAPPAGRSLVQRDIQAFLNQCGASPGEARHWLTQFQTCYHSVDKPFAVMEVDEEVIRCPQAVSRLAFALAFLQRMDMKPLVVLGLPTPTAPSGCLSFWEAKAQLAQSCKVLVDELRHNAATAVPFFGGGSVLSAAEPAPHASYGGIVAVETDLLQWCLESNSIPILCPIGETAARRSVLLDSLEVTASLAKALQPTKIIFLNNSGGLRNNSQKILSNVNLPADLDLVTNAEWLSIKERQQIRLIVDVLSRLPHYSSAVITAASTLLTELFSNKGCGTLFKNAERMLRVRNLDSLDQGRLVNLVNASFGKKLREDYLESLRPRLHSIYVSEGYNAAAILTVEPVLGGTPYLDKFVVSSSRQGQGSGQMLWECLRRDLQTLFWRSRVTNPINPWYFKHSDGSFSNKQWIFFWFGLADIRDSYELVNHAKGLPDSFCKPASDPGS
notes: N-acetylglutamate synthase (NAGS, EC 2.3.1.1), mouse; the printed tetramer weight of 195.8 kDa gives 48.95 kDa a subunit; also called mNAGS; mouse NAGS
B3: complete human N-acetylglutamate synthase (enzyme, UniProt Q8N159 19-534, looked up)
chain: LRGRGGTGGARRLSCGARRRAARGTSPGRRLSTAWSQPQPPPEEYAGADDVSQSPVAEEPSWVPSPRPPVPHESPEPPSGRSLVQRDIQAFLNQCGASPGEARHWLTQFQTCHHSADKPFAVIEVDEEVLKCQQGVSSLAFALAFLQRMDMKPLVVLGLPAPTAPSGCLSFWEAKAQLAKSCKVLVDALRHNAAAAVPFFGGGSVLRAAEPAPHASYGGIVSVETDLLQWCLESGSIPILCPIGETAARRSVLLDSLEVTASLAKALRPTKIIFLNNTGGLRDSSHKVLSNVNLPADLDLVCNAEWVSTKERQQMRLIVDVLSRLPHHSSAVITAASTLLTELFSNKGSGTLFKNAERMLRVRSLDKLDQGRLVDLVNASFGKKLRDDYLASLRPRLHSIYVSEGYNAAAILTMEPVLGGTPYLDKFVVSSSRQGQGSGQMLWECLRRDLQTLFWRSRVTNPINPWYFKHSDGSFSNKQWIFFWFGLADIRDSYELVNHAKGLPDSFHKPASDPGS
notes: N-acetylglutamate synthase (NAGS, EC 2.3.1.1), human; the printed tetramer weight of 202.4 kDa gives 50.6 kDa a subunit; also called hNAGS; human NAGS

What was measured:
[1] = molecular target: NAT domain of mouse NAGS (mouse); assay: SEC; analytic gel filtration, Superdex 200 HR 10/30; 100 mM NaH2PO4 pH 7.4, 150 mM NaCl, 10% glycerol, 1 mM β-mercaptoethanol; weights from a standard curve
[2] = molecular target: the molecule itself; assay: as above
[3] = molecular target: the molecule itself; assay: cross-linking; dimethyl suberimidate (4.5 µg) or suberic acid bis(3-sulfo-N-hydroxysuccinimide ester) sodium salt (9.0 µg), 10 µl of 200 mM triethanolamine pH 8.25, three hours at 298 K; SDS-PAGE, Coomassie (mNAGS) or silver (hNAGS) stain

| Molecule | stoichiometry N [3] | other results |
| --- | --- | --- |
| NAT domain of mouse NAGS (domain or fragment) |  | stoichiometry N [1]: 2 |
| B1 |  | stoichiometry N [2]: 2 |
| B2 | 4 |  |
| B3 | 4 |  |
